This note sets out measurements from US20140178389A1 (AbbVie / Abbott, published 2014).

Some results are limits rather than exact numbers.

The target in assay [1] is T1, recombinant human IL-1β (human, UniProt P01584 117-269). The assay is described as follows: cell-based or functional assay.
Assay [2] deals with T2, recombinant human IL-1α (human, UniProt P01583 113-271).
T2 sequence: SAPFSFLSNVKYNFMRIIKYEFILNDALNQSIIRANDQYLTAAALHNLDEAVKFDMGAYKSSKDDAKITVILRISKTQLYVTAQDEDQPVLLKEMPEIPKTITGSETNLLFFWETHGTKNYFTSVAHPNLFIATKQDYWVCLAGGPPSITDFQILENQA
The assay can be described thus: cell-based or functional assay.

Assay [3] concerns the target T3, recombinant cynomolgus IL-1β (cynomolgus, UniProt P79182 117-268).
T3 sequence (looked up): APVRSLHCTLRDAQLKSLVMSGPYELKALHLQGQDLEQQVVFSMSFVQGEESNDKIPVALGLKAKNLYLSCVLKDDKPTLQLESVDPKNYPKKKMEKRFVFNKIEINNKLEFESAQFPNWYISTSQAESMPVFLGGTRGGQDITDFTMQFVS
The assay is described as follows: cell-based or functional assay.

The target in assay [4] is T4, recombinant cynomolgus IL-1α (cynomolgus, UniProt P79340 113-271).
T4 sequence (looked up): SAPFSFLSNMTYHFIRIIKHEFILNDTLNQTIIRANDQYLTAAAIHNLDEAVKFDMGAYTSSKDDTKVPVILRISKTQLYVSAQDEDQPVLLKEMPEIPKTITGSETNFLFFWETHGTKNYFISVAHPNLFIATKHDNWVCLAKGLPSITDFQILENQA
The assay is described as follows: cell-based or functional assay.

The target of assay [5] is purified native human IL-1β (human, UniProt P01584 117-269). The assay can be described thus: cell-based or functional assay.
Assay [6] deals with T5, native human IL-1α present in crude supernatants (human, UniProt P01583 113-271, limits assumed).
T5 sequence (looked up): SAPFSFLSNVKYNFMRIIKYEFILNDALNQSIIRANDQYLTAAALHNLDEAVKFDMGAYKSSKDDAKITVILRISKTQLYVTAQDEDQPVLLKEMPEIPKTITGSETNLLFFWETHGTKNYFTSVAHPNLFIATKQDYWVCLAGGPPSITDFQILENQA
The assay can be described thus: cell-based or functional assay.

Assay [7] deals with T1, recombinant human IL-1β. The assay can be described thus: SPR (BIAcore), DVD-Ig captured via goat anti-human IgG Fc. The protocol: (§1) Goat IgGs specific to human IgG Fc were covalently linked to the carboxy methyl dextran matrix on the CMS biosensor chip via free amine groups using an amine coupling kit and the immobilization wizard option in the Biacore instruments controlling software. Specifically, carboxyl groups of the dextran matrix on the chip were activated with NHS and EDC. Goat anti-human IgG Fc antibodies (25 μg/mL), diluted in 10 mM sodium acetate, pH 4.5, were injected across the activated surface. Once the level of binding response reached the desired value, unreacted groups were deactivated by injection of 1M ethanolamine. For binding of IL-1α & IL-1β to captured Ig, a 1 μg/mL concentration of Ig in HBS-EP+ was injected over the goat anti-human IgG Fc surface at a flow rate of 10 μL/min for 1 minute. The net difference in the baseline signal and the signal after the completion of the Ig injection was taken to represent the amount of bound Ig.
(§2) The potency of the 5 DVD-Igs containing affinity matured h1B12.1 domains to recombinant and native IL-1 antigens was determined using the MRC-5 bioassay as shown in Table 24. The binding kinetics of the DVD-Igs to recombinant human and cynomolgus IL-1α and IL-1β were determined using surface plasmon resonance. In some cases, the off-rate could not be determined as they reached the limit of detection of the instrument.

The target of assay [8] is T2, recombinant human IL-1α. The assay is described as above. On the procedure:
as §1, §2

Assay [9] has as its target T3, recombinant cynomolgus IL-1β. The description is as above. The protocol:
as §1, §2

Assay [10] has as its target T4, recombinant cynomolgus IL-1α. The description is as above. The protocol: as §1, §2
Assay [11] deals with T1, recombinant human IL-1β. The assay can be described thus: indirect ELISA: mAb captured on goat anti-human IgG, biotinylated IL-1β titrated. The protocol: (§3) An indirect ELISA was performed to assess the relative affinity of the affinity matured h1B12.1 mAbs to a human chimeric version of the murine 1B12 mAb. An ELISA plate was coated with goat anti-human IgG (Jackson Immunoresearch cat#109-005-098) at 0.5 ug/mL overnight. The plate was blocked with 5% milk for 1 hour and washed three times with TPBS. Affinity-matured h1B12.1 antibodies and human IgG control (Sigma cat#12511) were incubated on the plate for 30 min at 0.2 μg/mL and then the plates were washed three times. A titration of biotinylated human IL-1β or biotinylated cyno IL-1β was added to the plate, starting at 10 nM and decreasing in concentration following a series of 1:3 dilutions. Binding of biotinylated IL-1β was detected with a 1:10000 dilution of peroxidase-conjugated streptavidin (Jackson Immunoresearch cat#016-030-084) and TMB substrate (Invitrogen). The data were fit in Graphpad prism to determine the EC₅₀ values.

Assay [12] addresses T3, recombinant cynomolgus IL-1β. The assay is described as above. On the procedure:
as §3

B1: DVD1-h1B12.13-SS-X3, human anti-IL-1α/β DVD IgG1/k mut (234,235) (bispecific antibody)
heavy: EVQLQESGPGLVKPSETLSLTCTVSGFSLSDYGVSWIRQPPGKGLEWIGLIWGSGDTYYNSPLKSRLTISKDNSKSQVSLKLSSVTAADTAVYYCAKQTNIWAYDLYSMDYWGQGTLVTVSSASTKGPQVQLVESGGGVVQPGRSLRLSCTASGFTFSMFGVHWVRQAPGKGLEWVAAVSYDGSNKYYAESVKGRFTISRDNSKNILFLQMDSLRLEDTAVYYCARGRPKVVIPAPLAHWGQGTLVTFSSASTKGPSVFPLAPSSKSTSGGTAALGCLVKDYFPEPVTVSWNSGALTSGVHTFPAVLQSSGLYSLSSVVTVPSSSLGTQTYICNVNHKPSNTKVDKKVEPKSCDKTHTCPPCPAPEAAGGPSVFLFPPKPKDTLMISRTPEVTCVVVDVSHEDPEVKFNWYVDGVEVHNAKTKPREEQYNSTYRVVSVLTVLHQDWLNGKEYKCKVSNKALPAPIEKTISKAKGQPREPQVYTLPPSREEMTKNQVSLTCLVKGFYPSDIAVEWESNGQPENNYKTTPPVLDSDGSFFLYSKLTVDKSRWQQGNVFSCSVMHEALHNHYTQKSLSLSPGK
light: DIQMTQSPSSLSASVGDRVTITCQTSTDIDDDLNWYQQKPGKAPKLLISLASTLRPGVPSRFSGSGSGTDFTFTISSLQPEDFATYYCLQSDRLPLTFGQGTKLEIKRTVAAPDIQMTQSPSSVSASVGDRVTITCRASQGISSWLAWYQQKPGKAPKLLIYEASNLETGVPSRFSGSGSGSDFTLTISSLQPEDFATYYCQQTSSFLLSFGGGTKVEHKRTVAAPSVFIFPPSDEQLKSGTASVVCLLNNFYPREAKVQWKVDNALQSGNSQESVTEQDSKDSTYSLSSTLTLSKADYEKHKVYACEVTHQGLSSPVTKSFNRGEC
notes: also called PR-1358316
Regarding B1, the “Potency (IC50) pM, MRC-5 bioassay” value in the assay with recombinant human IL-1β [1] is 55.9 pM; with recombinant human IL-1α [2] it was 45.4 pM; in assay [3] it was 3.62 pM; in [4] it was 2440 pM; in assay [5] it was 1.64 pM; in [6], 24.4 pM. In addition, the Kd with recombinant human IL-1β [7] turned out to be 0.00022 nM; with recombinant human IL-1α [8] it was 0.021 nM; in assay [9] it was 0.0015 nM; in assay [10], 2.3 nM. Moreover, the off-rate constant (koff) with recombinant human IL-1β [7] was 5.1e-06 s⁻¹; with recombinant human IL-1α [8], 2.9e-06 s⁻¹; in [9], 1.7e-05 s⁻¹; in [10], 0.00023 s⁻¹. Further, the kon was 2.3e+07 M⁻¹ s⁻¹ in the assay with recombinant human IL-1β [7], 140000 M⁻¹ s⁻¹ with recombinant human IL-1α [8], 1.2e+07 M⁻¹ s⁻¹ in [9] and 100000 M⁻¹ s⁻¹ in [10].

B2: DVD2-h1B12.21-SS-X3, human anti-IL-1α/β DVD IgG1/k mut (234,235) (bispecific antibody)
heavy: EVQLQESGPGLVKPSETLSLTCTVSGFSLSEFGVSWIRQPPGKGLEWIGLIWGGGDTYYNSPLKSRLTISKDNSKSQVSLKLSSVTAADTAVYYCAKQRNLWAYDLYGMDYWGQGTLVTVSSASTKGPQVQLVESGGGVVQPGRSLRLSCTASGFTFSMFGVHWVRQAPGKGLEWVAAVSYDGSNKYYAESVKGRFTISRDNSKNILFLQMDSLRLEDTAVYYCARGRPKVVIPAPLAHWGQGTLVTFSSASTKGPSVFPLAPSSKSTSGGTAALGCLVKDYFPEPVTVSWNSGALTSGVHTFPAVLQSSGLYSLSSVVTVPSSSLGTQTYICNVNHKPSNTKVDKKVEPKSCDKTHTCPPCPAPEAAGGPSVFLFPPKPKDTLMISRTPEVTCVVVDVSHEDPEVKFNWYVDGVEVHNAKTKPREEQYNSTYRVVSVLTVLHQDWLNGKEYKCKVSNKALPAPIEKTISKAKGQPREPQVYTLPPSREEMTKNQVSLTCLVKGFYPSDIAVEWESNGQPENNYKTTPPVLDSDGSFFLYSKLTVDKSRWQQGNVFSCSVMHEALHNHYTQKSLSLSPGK
light: DIQMTQSPSSLSASVGDRVTITCQTSQDIDMDLNWYQQKPGKAPKLLISQGSTLWPGVPSRFSGSGSGTDFTFTISSLQPEDFATYYCLQTDSFPLTFGQGTKLEIKRTVAAPDIQMTQSPSSVSASVGDRVTITCRASQGISSWLAWYQQKPGKAPKLLIYEASNLETGVPSRFSGSGSGSDFTLTISSLQPEDFATYYCQQTSSFLLSFGGGTKVEHKRTVAAPSVFIFPPSDEQLKSGTASVVCLLNNFYPREAKVQWKVDNALQSGNSQESVTEQDSKDSTYSLSSTLTLSKADYEKHKVYACEVTHQGLSSPVTKSFNRGEC
notes: also called PR-1358317
Turning to B2, the “Potency (IC50) pM, MRC-5 bioassay” value with recombinant human IL-1β [1] was 48.6 pM; in the assay with recombinant human IL-1α [2] it was 42.8 pM; in [3], 1.86 pM; in assay [4], 1640 pM; in assay [5], 1.91 pM; in [6] it was 72 pM. Besides, the Kd in the assay with recombinant human IL-1β [7] stood at 0.0002 nM; in the assay with recombinant human IL-1α [8], 0.12 nM; in assay [9], 0.0016 nM; in assay [10], 2 nM. Also, the koff amounted to 5.1e-06 s⁻¹ with recombinant human IL-1β [7], 1.6e-05 s⁻¹ with recombinant human IL-1α [8], 1.8e-05 s⁻¹ in assay [9] and 0.00021 s⁻¹ in assay [10]. Moreover, the kon with recombinant human IL-1β [7] was 2.5e+07 M⁻¹ s⁻¹; with recombinant human IL-1α [8], 140000 M⁻¹ s⁻¹; in assay [9], 1.1e+07 M⁻¹ s⁻¹; in assay [10] it was 100000 M⁻¹ s⁻¹.

B3: DVD5-h1B12.A3-SS-X3, human anti-IL-1α/β DVD IgG1/k mut (234,235) (bispecific antibody)
heavy: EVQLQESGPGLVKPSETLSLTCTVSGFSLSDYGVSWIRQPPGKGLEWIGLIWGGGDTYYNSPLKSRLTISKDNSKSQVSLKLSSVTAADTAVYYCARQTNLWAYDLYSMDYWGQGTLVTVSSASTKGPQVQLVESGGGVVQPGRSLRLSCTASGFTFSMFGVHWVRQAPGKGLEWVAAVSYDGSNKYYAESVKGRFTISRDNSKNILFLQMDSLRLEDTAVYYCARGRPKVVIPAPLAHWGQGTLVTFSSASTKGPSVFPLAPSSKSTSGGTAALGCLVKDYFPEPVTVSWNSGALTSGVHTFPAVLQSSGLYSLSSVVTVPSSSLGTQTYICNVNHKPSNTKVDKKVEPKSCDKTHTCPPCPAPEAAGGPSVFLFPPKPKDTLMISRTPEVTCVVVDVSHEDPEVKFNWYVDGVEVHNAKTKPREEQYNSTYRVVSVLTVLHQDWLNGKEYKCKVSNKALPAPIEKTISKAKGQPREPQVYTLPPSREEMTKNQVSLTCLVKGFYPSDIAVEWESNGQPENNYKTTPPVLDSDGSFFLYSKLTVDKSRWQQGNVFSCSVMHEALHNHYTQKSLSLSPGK
light: DIQMTQSPSSLSASVGDRVTITCQASTDIDDDLNWYQQKPGKAPKLLISLGSTLRPGVPSRFSGSGSGTDFTFTISSLQPEDFATYYCLQSDRLPLTFGQGTKLEIKRTVAAPDIQMTQSPSSVSASVGDRVTITCRASQGISSWLAWYQQKPGKAPKLLIYEASNLETGVPSRFSGSGSGSDFTLTISSLQPEDFATYYCQQTSSFLLSFGGGTKVEHKRTVAAPSVFIFPPSDEQLKSGTASVVCLLNNFYPREAKVQWKVDNALQSGNSQESVTEQDSKDSTYSLSSTLTLSKADYEKHKVYACEVTHQGLSSPVTKSFNRGEC
notes: also called PR-1358321
On to B3, for which the “Potency (IC50) pM, MRC-5 bioassay” value with recombinant human IL-1β [1] was 51.2 pM; with recombinant human IL-1α [2], 44.3 pM; in assay [3], 6.56 pM; in assay [4], 1920 pM; in assay [5] it was 4.27 pM; in [6], 57.6 pM. The Kd with recombinant human IL-1β [7] is 0.0005 nM; with recombinant human IL-1α [8], 0.01 nM; in assay [9], 0.001 nM; in assay [10], 2.4 nM. Also, the koff in the assay with recombinant human IL-1β [7] turned out to be 1.3e-05 s⁻¹; with recombinant human IL-1α [8], 1.6e-06 s⁻¹; in [9], 1.3e-05 s⁻¹; in [10], 0.00027 s⁻¹. Further, the kon with recombinant human IL-1β [7] stood at 2.6e+07 M⁻¹ s⁻¹; in the assay with recombinant human IL-1α [8] it was 150000 M⁻¹ s⁻¹; in assay [9] it was 1.3e+07 M⁻¹ s⁻¹; in assay [10], 110000 M⁻¹ s⁻¹.

B4: DVD4-h1B12.A1-SS-X3, human anti-IL-1α/β DVD IgG1/k mut (234,235) (bispecific antibody)
heavy: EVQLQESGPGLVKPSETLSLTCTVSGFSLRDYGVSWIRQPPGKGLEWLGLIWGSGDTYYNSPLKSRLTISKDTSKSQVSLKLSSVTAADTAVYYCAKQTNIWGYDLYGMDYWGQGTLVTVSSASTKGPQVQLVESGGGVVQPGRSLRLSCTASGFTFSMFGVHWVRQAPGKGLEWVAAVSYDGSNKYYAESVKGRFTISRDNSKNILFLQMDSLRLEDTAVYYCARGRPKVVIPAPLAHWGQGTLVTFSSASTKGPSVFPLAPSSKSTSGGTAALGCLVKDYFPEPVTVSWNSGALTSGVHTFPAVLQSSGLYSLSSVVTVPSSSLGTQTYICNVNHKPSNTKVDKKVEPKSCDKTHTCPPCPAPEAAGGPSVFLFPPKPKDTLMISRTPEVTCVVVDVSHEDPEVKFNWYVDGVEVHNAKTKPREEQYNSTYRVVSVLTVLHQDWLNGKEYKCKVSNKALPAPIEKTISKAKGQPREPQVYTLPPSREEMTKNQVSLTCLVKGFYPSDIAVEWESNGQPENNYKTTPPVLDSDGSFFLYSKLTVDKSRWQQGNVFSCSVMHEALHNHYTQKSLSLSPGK
light: DIQMTQSPSSLSASVGDRVTITCQASQDIDMDLNWYQQKPGKAPKLLISQANTLPPGVPSRFSGSGSGTDFTFTISSLQPEDFATYYCLQSDWLPLTFGQGTKLEIKRTVAAPDIQMTQSPSSVSASVGDRVTITCRASQGISSWLAWYQQKPGKAPKLLIYEASNLETGVPSRFSGSGSGSDFTLTISSLQPEDFATYYCQQTSSFLLSFGGGTKVEHKRTVAAPSVFIFPPSDEQLKSGTASVVCLLNNFYPREAKVQWKVDNALQSGNSQESVTEQDSKDSTYSLSSTLTLSKADYEKHKVYACEVTHQGLSSPVTKSFNRGEC
notes: also called PR-1358319
With B4, the “Potency (IC50) pM, MRC-5 bioassay” value with recombinant human IL-1β [1] amounted to 58.6 pM; in the assay with recombinant human IL-1α [2], 38.6 pM; in [3] it was 4.02 pM; in [4], 2580 pM; in assay [5], 2.46 pM; in assay [6] it was 50.9 pM. For the same molecule, the Kd with recombinant human IL-1β [7] is ≤ 0.00098 nM; with recombinant human IL-1α [8], 0.2 nM; in assay [9], 0.0018 nM; in assay [10] it was 2.6 nM. For the same molecule, the koff with recombinant human IL-1β [7] is ≤ 1e-05 s⁻¹; with recombinant human IL-1α [8], 3.6e-05 s⁻¹; in assay [9], 9.6e-06 s⁻¹; in [10] it was 0.00035 s⁻¹. The kon with recombinant human IL-1β [7] worked out at 1.1e+07 M⁻¹ s⁻¹; in the assay with recombinant human IL-1α [8] it was 180000 M⁻¹ s⁻¹; in [9], 5.3e+06 M⁻¹ s⁻¹; in [10], 130000 M⁻¹ s⁻¹.

B5: h1B12-AM1, affinity-matured h1B12.1 IgG1/k mut (234,235) mAb (scFv clone 13) (antibody, V domains shown)
VH: EVQLQESGPGLVKPSETLSLTCTVSGFSLSDYGVSWIRQPPGKGLEWIGLIWGSGDTYYNSPLKSRLTISKDNSKSQVSLKLSSVTAADTAVYYCAKQTNIWAYDLYSMDYWGQGTLVTVSS
VL: DIQMTQSPSSLSASVGDRVTITCQTSTDIDDDLNWYQQKPGKAPKLLISLASTLRPGVPSRFSGSGSGTDFTFTISSLQPEDFATYYCLQSDRLPLTFGQGTKLEIKR
notes: also called PR-1354589
Consider B5, for which the EC50 with recombinant human IL-1β [11] was 0.031 nM; in assay [12] it was 0.026 nM.

B6: h1B12-AM3, affinity-matured h1B12.1 IgG1/k mut (234,235) mAb (scFv clone 34) (antibody, V domains shown)
VH: EVQLQESGPGLVKPSETLSLTCTVSGFSLSDYGVSWIRQPPGKGLEWIGLIWGSGDTYYNSPLKSRLTISKDTSKSQVSLKLSSVTAADTAVYYCAKQTNLWAYDLYSMDYWGQGTLVTVSS
VL: DIQMTQSPSSLSASVGDRVTITCQASQDIDDDLNWYQQKPGKAPKLLISLASILRPGVPSRFSGSGSGTDFTFTISSLQPEDFATYYCLQSDSFPLTFGQGTKLEIKR
notes: also called PR-1354592
Take B6: the EC50 with recombinant human IL-1β [11] is 0.033 nM; in assay [12], 0.032 nM.
